According to the nanobody polyreactivity screen of Harvey et al. (2022):

Assay: yeast display, Sf9 membrane polyspecificity reagent, FACS + sequencing; frameworks hold sequencing errors
How it was run: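 Synthetic nanobody libraries on Saccharomyces cerevisiae BJ5465 were galactose-induced for 36–48 hours, stained 1 hour at 4 °C with 10% biotinylated, detergent-solubilized Sf9 membrane reagent and enriched on streptavidin microbeads. FACS then separated cells into low and high (top ~1%) gates by anti-HA (expression) and streptavidin (reagent binding) fluorescence. Genes were colony-PCR amplified, MiSeq 2 × 250 sequenced and CDR-length filtered. A clone's polyreactivity label is that of its gate of origin.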

| Sequence | polyreactivity (PSR sort gate) |
| --- | --- |
| QVQLVESGGGLVQAGGSLRLICAASGRIFGYYAMGWYRQAPGKERELVAAIDGSDGTTYYADSVKGRFTISRDNAKNTVYFHMNSLKPEDTAVYYCAKDNSLPDYDYWGQGTQVTVSS | low polyreactivity |
| QVQLVESGGGLVQAGGSLRLICAASGRIFLENALGWYRQAPGKERELVATISNGGSTSYADSVKGRFTISRDNAKNKVYLQMISLKPEDTSVYYCAADYCWPYILYGYDYWGEGTQVTVSS | low polyreactivity |
| QVQLVESGGGLVQAGGSLRLICAASGRIFLYYAMGWYRQAPGKERELVAAITRGGGTTYADSVKGRFTISRDNAKNTVYLQMNSLKPEDTAVYYCAKRYSYYPGFDYWGQGTQVTVSS | high polyreactivity |
| QVQLVESGGGLVQAGGSLRLICAASGRIFNRYAMGWYRQAPGNERELVAAITWSGDRTNYADSVKGRFTISRDNAKNTVYLLMNSLKPEDTAVYYCAAADGIIESDYWGQGTQVTVSS | low polyreactivity |
| QVQLVESGGGLVQAGGSLRLICAASGRIFNYNYMGLYRQAPGKERELLAAISWRGGSTYYADSVKGRFTISRDNAKNTVYLQMKSLKPEDTAVYYCNKRTRYSTGSRYDYWGQGTQVTVSS | high polyreactivity |
| QVQLVESGGGLVQAGGSLRLICAASGRIFRANARGWYRQAPGKERELVATIRNSGGITYYADSVKGRFTISRDHAKNTVYLQMNSLKPEDTALYYCGNLGRYCYDYWGQGTQVTVSS | high polyreactivity |
| QVQLVESGGGLVQAGGSLRLICAASGRIFRINAMGWYRQAPGKEREFVAAISWRSGSTYYADSVKGRFTISRDNAKNSVYLQMNSLKPEDTAVYYCAAKLYGYRSGYYYWGQGTQVTVSS | high polyreactivity |
| QVQLVESGGGLVQAGGSLRLICAASGRIFRPYAMGWYRQAPGKERELVAAISSSGGSTYYADSVKGRFTISRDNAKNTVYLQMNSLKPEDTAVYYCATYFARGRRYDYWGQGTQVTVSS | high polyreactivity |
| QVQLVESGGGLVQAGGSLRLICAASGRIFSSYAMGWYRQAPGKERELVAAISRGGGRTYYADSVKGRFTISRDNAKNTVYLQMNSLKPEDTAVYYCAVRLYYSIRYYYWGQGTQVTVSS | high polyreactivity |
| QVQLVESGGGLVQAGGSLRLICAASGRIFSYYAMGWYRQAPGKERELVARITSRGASTYYADSVKGRFTISRDNAKNTVYLQMNSLKPEDTAVYYCAARYIPIQYPSYRTWGGYSWGQGTQVTVSS | high polyreactivity |
| QVQLVESGGGLVQAGGSLRLICAASGRIFVYNAKGSYSQAPGKDRELVATITSGGSTYYSDSVKGRFTISRDNAKNTVYFQMNSLKPEDTAVYYCAARRWYVHYFAYGYWGQGTQVTVSS | low polyreactivity |
| QVQLVESGGGLVQAGGSLRLICAASGRIFYGYAMGWYRPAPGKEREFVAAITVSAGSTYYADSVKGRFTISRDNAKNTVYLQMNSLKPEDTAVYYCAAKRYVYPSYRFDYWGQGTQVTVSS | low polyreactivity |
| QVQLVESGGGLVQAGGSLRLICAASGRIFYYYTMGWYRQAPGKERELVAAITRSGSSTYADSVKGRFTISRDNAKNTVYLQMNSLKPEDTAVYYCAADYIRRYDYWGQGTQVTVSS | low polyreactivity |
| QVQLVESGGGLVQAGGSLRLICAASGRIVEGYAMGWYRQAPGKERELDAAISSGGSTYYADSVKGRFTISRDNAKNTVYLQMNSLKPEDTAVYYCNAAHSVVSHGPGAGLEMDYWGEGTQVTVSS | low polyreactivity |
| QVQLVESGGGLVQAGGSLRLICAASGRNFTKYAMGLYRQAPGKERELVAAINFRGDRTYYADSVKGRYTISRDNAKNTVYLQMNSLKPEDTAVYYCAAEWSTYWLFNYEYWGQGTQVTVSS | high polyreactivity |
| QVQLVESGGGLVQAGGSLRLICAASGRSFNLYAMGWYRQAPGKERELVAAISYSGGRTYSADSVKGRFTISRDNAKNTVYLQMNSLKPEDTAVYYCNTVRGSVRQAGVGYEYWGQGTQVTVSS | high polyreactivity |

| Sequence | polyreactivity (PSR sort gate) |
| --- | --- |
| QVQLVESGGGLVQAGGSLRLICAASGRTFCAYAMGWYRQAPGKERELVAAITTSGGSTNYADSVKGRFTISRDTAKYTVYLEMKSLKPEETAVYYCNADPTYHVVNGVGFWGQGTQVTVSS | low polyreactivity |
| QVQLVESGGGLVQAGGSLRLICAASGRTFFPYAMGWYRQAPGKEREFFAAISTRGGSTYYADSVKGRFTISRDNAKNTVYLQMNSLKPEDTAVYYCAARFHKKGYWVYRMDYWGQGTQVTVSS | high polyreactivity |
| QVQLVESGGGLVQAGGSLRLICAASGRTFGGNAMGWYRQAPGKERELVASITSRGGTTYYADSVKGRFTISRDNAKNTVYLQMNSLKPEDTAVYYCAALRRSSFGYWGQGTQVTVSS | high polyreactivity |
| QVQLVESGGGLVQAGGSLRLICAASGRTFGVYSMGWYRQAPGKERELVAAISATGGSTYYADSVKGRFTISRDNAKNTVYLQMNSLKPEDTAVYYCARGGTTLYWGQGTQVTVSS | high polyreactivity |
| QVQLVESGGGLVQAGGSLRLICAASGRTFQYNAMGWYRQAPGKERELVAAISARAGSTYYADSVKGRFTISRDNAKNTVYLQMNRLKPEDTAVYYCAARAWTRSVPYGFYYWGQGTQVTVSS | high polyreactivity |
| QVQLVESGGGLVQAGGSLRLICAASGRTFRIYAMGWYRQEPGKDRQLVAAIRWSGGTTYYADSVKGRFTISRDYAKNTVYLQMNSLKPDDTSVYYCAADSTNRFDYWGQGTQVTVSS | high polyreactivity |
| QVQLVESGGGLVQAGGSLRLICAASGRTFRYNAMGWYRQAPGKERELVAAITQSGGSTYYADSVKGRFTISRDNAKNTVYLQMNSLKPEDTAVYYCAKVRERINYDYWGQGTQVTVSS | low polyreactivity |
| QVQLVESGGGLVQAGGSLRLICAASGRTFSGYAMGWYRPAPGKERELVAAINWSTGSTYYADSVKGRFTISRDNAQNTVYLQMNSLKPEDTAVYYCAAGYYYYGNGRIVQYEYWGQGTQVTVSS | high polyreactivity |
| QVQLVESGGGLVQAGGSLRLICAASGRTFSSYSMGWYRQAPGKERELVAAISRSGARTYYADSVKGRFTISRDNAKNTFYVQMNSLKPEDTAVYSCAGVTVAGYDYWGQGTEVTVSS | high polyreactivity |
| QVQLVESGGGLVQAGGSLRLICAASGRTFVYYAMGWYRQAPGKERELLAANSLSGSTYYAYSVKGRVTISRDNAKNTVDLHMYSLKPDDTAVYYCARPGGPDRTSSPYPYPYGYWGQGTQVTVSS | low polyreactivity |
| QVQLVESGGGLVQAGGSLRLICAASGRTFVYYAMGWYRQAPGKERELVAAISSSGGSTSYADSVKGRFTISRDNAKNTVYLQMNSLKPEDTAFYYCAADVSVSGYYYWGQGTQVTVSS | high polyreactivity |
| QVQLVESGGGLVQAGGSLRLICAASGRTFYYNAMGWYRQAPGKERELVAAINRGTGGTFYADSVKGRFTISRDNAKNTVYLQMNSLKPEDTAVYYCAADLDGSSEYEYWGQGTQVTVSS | low polyreactivity |
| QVQLVESGGGLVQAGGSLRLICAASGRTFYYYAMGWYRQAPGKERELVAAISKDGGRTYYADSVKGRFTISRDNAKHTVYLQMKSLKPEDTAVYYCAARYSSSRGLSSEYWGQGTQVTVSS | high polyreactivity |
| QVQLVESGGGLVQAGGSLRLICAASGRYYAMGWYRQAPGKERELVAAISSGGSTNYADSVKGRFTISRDNAKNTVYLQMNSLKPEDTAVYYCAALIRQLRYYLYYYWGQGTQVTVSS | high polyreactivity |
| QVQLVESGGGLVQAGGSLRLICAASGSFFSKYAMGWYRQAPGTEREWVAAISWSGTSTYYADSVKGRFTISRDNAKITVYLQLNSLKTEDNAVSYCAASSPRSLSLLGYWGQGTQVTESS | low polyreactivity |
| QVQLVESGGGLVQAGGSLRLICAASGSIFADYVMGWYRQAPGKERELVAAITIDGGSTYYADSVKGRFTISRDNAKNTVYLQMNSLKPEDTAVYYCAADSSGRSDSWGQGTQVTVSS | low polyreactivity |
